Assay results: article PMC12317118

Target: YFPN-hAQP4 (human aquaporin 4 fused N-terminally to the YFPN fragment) (human) (UniProt P55087)
Assay: split reporter (BiFC, NanoBiT); YFPN-hAQP and YFPC-CaM co-expressed in S. cerevisiae; living cells at OD600 0.5 read by flow cytometry (FACSMelody, excitation 488 nm, FITC channel 527/32 nm); fluorescence frequency and intensity of gated cells; three transformations, ten replicates each

UniProt P55087, sequence (P55087 whole entry, the tested form may be a part): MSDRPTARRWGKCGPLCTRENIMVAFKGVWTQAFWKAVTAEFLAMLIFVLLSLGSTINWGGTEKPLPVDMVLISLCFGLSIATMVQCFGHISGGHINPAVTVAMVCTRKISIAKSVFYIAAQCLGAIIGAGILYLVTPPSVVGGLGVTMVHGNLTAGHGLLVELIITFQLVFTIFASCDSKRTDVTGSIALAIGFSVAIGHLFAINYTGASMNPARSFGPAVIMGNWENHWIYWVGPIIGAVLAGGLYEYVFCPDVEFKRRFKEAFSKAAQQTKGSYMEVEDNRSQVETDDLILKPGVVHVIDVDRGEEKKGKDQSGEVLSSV

YFPC-CaM (calmodulin fused N-terminally to the YFPC fragment) (from UniProt P0DP23 1-149) (natural protein)
average fluorescence intensity (BiFC): 1700
